Measurements from patent US6200577A, “Anti-herpesviral agents and assays therefor” (priority 1996, dated 2001).
pIC50: −log10 of the molar value.

Experiments:
[1] = molecular target: T1, VP16/VP22trunc interaction (Human herpesvirus 1, UniProt P06492); experiment: Far Western analysis of peptides blocking VP16 binding to immobilised VP22trunc; design: species or system HSV-1; settings: for Blocking of VP16 binding to immobilised VP22trunc (Far Western), crude peptides: strips pre-incubated with 1 mg of crude peptide, FIG. 7A; for Blocking of VP16 binding to immobilised VP22trunc (Far Western), repeat with purified peptides D and E: strips pre-incubated with 1 mg peptide, FIG. 7B
T1 construct: Plasmid pETVP16 was used to express full-length VP16 under the control of the T7 RNA polymerase promoter; made in house; host or cells: E. coli BL21(DE3)
T1 sequence (P06492 whole entry): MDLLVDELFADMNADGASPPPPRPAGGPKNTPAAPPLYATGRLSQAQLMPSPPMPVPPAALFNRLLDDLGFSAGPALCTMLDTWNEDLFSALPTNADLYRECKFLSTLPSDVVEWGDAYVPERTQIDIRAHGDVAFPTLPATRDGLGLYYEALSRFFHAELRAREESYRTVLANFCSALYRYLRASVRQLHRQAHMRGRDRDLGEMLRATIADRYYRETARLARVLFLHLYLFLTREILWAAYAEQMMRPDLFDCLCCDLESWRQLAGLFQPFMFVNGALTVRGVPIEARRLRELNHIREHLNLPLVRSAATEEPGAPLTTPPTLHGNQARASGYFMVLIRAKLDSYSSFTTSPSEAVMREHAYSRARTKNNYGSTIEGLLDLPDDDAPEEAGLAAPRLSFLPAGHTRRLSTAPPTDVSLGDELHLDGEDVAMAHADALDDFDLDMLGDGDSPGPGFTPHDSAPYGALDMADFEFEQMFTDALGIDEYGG
Experimental: FIG. 7 Far Western analysis of the ability of peptides to block the interaction between VP16 and immobilised VP22trunc. Purified VP22trunc was added to partially purified extract of VP16 and the sample run on a 12% polyacrylamide gel. Proteins were then transferred to nitrocellulose membrane and the blot was cut into strips, with each strip containing approximately 1 g of VP22trunc. In (A), strips were pre-incubated with 1 mg of each of the following peptides: lane 2, no peptide, lane 3, peptide C; lane 4, peptide D; lane 5, peptide E; lane 6, peptide F; lane 7, peptides D and E; lane 8, peptides C and F. In (B) strips were pre-incubated with 1 mg of each of the following peptides: lane 2, no peptide, lane 3, peptide C; lane 4, purified peptide D; lane 5, purified peptide E; lane 6, peptide F. 24 g of pure VP16 was then added to strips 2 to 8 in (A) and strips 2 to 6 in (B), followed by incubation with LP1 antibody (1:1000 dilution). As a control, portions of the blot were incubated with LP1 or the 9220 antibody at a dilution of 1:1000 (lane 1 for LP1 in A and B; lane 9 in A and lane 7 in B for 9220). The apparent molecular weights of VP16 (65 KDa) and the dimer (32 KDa) and monomer (16 KDa) forms of VP22trunc are shown.
Following electrophoresis, proteins were electrotransferred to either Hybond or ProBlott (Applied Biosystems) membrane and the membrane was incubated in renaturation buffer (50 mM Tris-HCl, pH 8.0, 150 mM NaCl, 10% glycerol, 1 mM DTT) at 4° C. for 5-6 hours.
For membranes probed with either VP16 or VP22trunc, blocking was performed overnight as described for Western blot analysis. Probing with epitope-tagged VP22 or VP16 was performed in 20 mM Tris-HCl, pH 8.0, 250 mM NaCl for 1.5 hours at ambient temperature. Excess probe was removed by washing 4 times (10 minutes per wash) in 20 mM Tris-HCl, pH8.0, 250 mM NaCl, followed by incubation with the appropriate antibody at a dilution of 1:1000 in TTBS/1% gelatin for 1.5-2 hours. Bound antibody was detected as described for Western blot analysis.
Based on the studies with soluble VP16 and VP22trunc presented above, only a restricted number of peptides were examined by Far Western analysis to identify those that may prevent binding of VP16. Thus, VP22trunc was added to a crude extract of bacterially expressed VP16 and the proteins were electrophoresed on a polyacrylamide gel followed by transfer to a membrane. […] Before the addition of VP16 the blot strips in lanes 3 to 8 were incubated with crude preparations of peptides C, D, E, or E' as well as mixtures of either 0 and E or C and F. When the blot strips were incubated with peptides C and F either singly or in combination, VP16 bindincg to VP22trunc was not prevented (FIG. 7A, lanes 3, 6 and 8).

[2] = molecular target: T1, VP16/VP22trunc interaction; experiment: ELISA of peptide inhibition of VP16 binding to VP22trunc; design: species or system HSV-1; settings: for Inhibition of VP16 binding to VP22trunc in ELISA: D and E pure preparations, effect at 100 and 500 μg/ml, VP16 1.6 μg/ml, 160 ng VP22trunc, FIG. 9; for pIC50: converted from μg/ml, maximum molarities, read-out: Molarity for 50% inhibition of VP16 binding (ELISA); for pIC50 / Concentration for 50% inhibition of VP16 binding (ELISA): peptides not 100% soluble; for Concentration for 50% inhibition of VP16 binding (ELISA): pure peptide preparations, maximum values
Experimental: FIG. 9 Inhibitory effect of peptides D and E on the VP22trunc-VP16 interaction in ELISAs. Microtitre plates were coated with 160 ng of VP22trunc and blocked with PBS/10% NCS. Before addition to the wells, five-fold dilutions of the peptides, ranging from 500 μg/ml to 1 g/ml, were incubated with VP16 (1.6 μg/ml). Bound VP16 was detected with LP1 at a dilution of 1:1000. The legend for the peptides added is shown to the right of the graph. Values are shown relative to those obtained in the absence of the peptide.
Dilutions of proteins in PBS were coated overnight onto flat bottomed micro-titre plates (Dynatech) at 37° C. and then blocked with either 2% BSA or 10% new-born calf serum (NCS) in PBS for 1 hour at 37° C. Specific binding of a second protein to the plate-bound protein was performed for 1.5-2 hours at ambient temperature. a Excess secondary protein was removed by washing four times with PBS, 0.3% Tween 20. Bound protein was detected by incubation for 1.5-2 hours with LP1 antibody in PBS, 1% gelatin or PBS, 2% NCS. The bound antibody was detected by incubation for 1 hour at ambient temperature with anti-mouse antibody conjugated to HRP (1:500) and visualised with Smg/ml enzyme substrate 2,2'-azino-bis(3-ethylbenzthiazoline-6-sulphonic acid) (ABTS; Sigma) in citrate-phosphate buffer containing 6 μl hydrogen peroxide in a total volume of 20 ml. Optical densities were measured on a Titertek Multiscan PLUS instrument.
To adopt a more quantitative approach, an ELISA for VP16 binding to VP22trunc was developed. Optimal conditions were determined by coating wells with various quantities of VP22trunc followed by blocking with 2% BSA. Plates were then incubated with dilutions of VP16 and the bound VP16 detected with LP1.
The studies presented above have provided strong evidence in support of peptide inhibition of the interaction between VP16 and VP22. However, quantitative analysis of the ability of peptides to block any interaction is difficult to perform by the above methods. Therefore, using the ELISA system described in Results Section 2(iii) with the exception that PBS/10% NCS was utilised as a blocking agent, the inhibitory effects of peptides D and E were examined. This modification arose due to nonspecific binding of the peptides to wells when BSA was used for blocking (data not shown).

## TPRVAGFNKRVFCAAVGRLA [Peptide D]
[1]
  Blocking of VP16 binding to immobilised VP22trunc (Far Western), crude peptides: loss of recognition of VP22trunc
  Blocking of VP16 binding to immobilised VP22trunc (Far Western), repeat with purified peptides D and E: able to block binding of VP16 to VP22trunc
[2]
  Inhibition of VP16 binding to VP22trunc in ELISA: could inhibit binding of VP16 to VP22trunc
  pIC50: 4.00
  Concentration for 50% inhibition of VP16 binding (ELISA): 212.5 µg/mL

## CAAVGRLAAMHARMAAVQLW [Peptide E]
[1]
  Blocking of VP16 binding to immobilised VP22trunc (Far Western), crude peptides: loss of recognition of VP22trunc
  Blocking of VP16 binding to immobilised VP22trunc (Far Western), repeat with purified peptides D and E: able to block binding of VP16 to VP22trunc
[2]
  Inhibition of VP16 binding to VP22trunc in ELISA: could inhibit binding of VP16 to VP22trunc
  pIC50: 4.36
  Concentration for 50% inhibition of VP16 binding (ELISA): 85.7 µg/mL

## FSTAPPNPDAPWTPRVAGFN [Peptide C]
[1]
  Blocking of VP16 binding to immobilised VP22trunc (Far Western), crude peptides: not prevented
  Blocking of VP16 binding to immobilised VP22trunc (Far Western), repeat with purified peptides D and E: had no effect
[2]
  Inhibition of VP16 binding to VP22trunc in ELISA: neither peptides B, C nor F had any effect
